In the supplement of paper PMC10266784:

B1: library; numbered along this chain (parent)
chain: MAAAAAAAAEQQSSNGPVKKSMREKAVERRSVNKEHNSNFKAGYIPIDEDRLHKTGLRGRKGNLAICVIILLFILAVINLIITLVIWAVIRIGPNGCDSMEFHESGLLRFKQVSDMGVIHPLYKSTVGGRRNENLVITGNNQPIVFQQGTTKLSVENNKTSITSDIGMQFFDPRTQNILFSTDYETHEFHLPSGVKSLNVQKASTERITSNATSDLNIKVDGRAIVRGNEGVFIMGKTIEFHMGGNMELKAENSIILNGSVMVSTTRLPSSSSGDQLGSGDWVRYKLCMCADGTLFKVQVTSQNMGCQISDNPCGNTH

Variants of: B1
Assay: SGCB cell-surface expression functional score (HA stain, bin4 vs bin1, normalised to synonymous) (log10 ratio); higher = more cell-surface SGCB (functional)
Method in brief: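 HEK293 cells stably expressing alpha-, gamma- and delta-sarcoglycan received codon-saturation libraries of HA-tagged, YFP-fused human beta-sarcoglycan by lentiviral transduction at MOI <0.1, performed in duplicate. Cells positive for YFP were sorted after 72 hours and cultured for 5–7 days, then stained on ice with Alexa Fluor 647 anti-HA and fixed. Fixed cells were sorted into four 5% intensity bins and amplicon-sequenced, and the log ratio of highest-bin to lowest-bin variant frequency, as a median over codons and transductions, gives the functional score. Per section, synonymous variants were scaled to mean 0, SD 0.5.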
In the case of MAAAAAAAAEQQSSNGPVKKSMREKAVERRSVNKEHNSNFKAGYIPIDEDRLHKTGLRGRKGNLAICVIILLFILAVINLIITLVMWAVIRIGPNGCDSMEFHESGLLRFKQVSDMGVIHPLYKSTVGGRRNENLVITGNNQPIVFQQGTTKLSVENNKTSITSDIGMQFFDPRTQNILFSTDYETHEFHLPSGVKSLNVQKASTERITSNATSDLNIKVDGRAIVRGNEGVFIMGKTIEFHMGGNMELKAENSIILNGSVMVSTTRLPSSSSGDQLGSGDWVRYKLCMCADGTLFKVQVTSQNMGCQISDNPCGNTH [I86M], the “SGCB cell-surface expression functional score (log10)” value is reported as -0.18. With MAAAAAAAAEQQSSNGPVKKSMREKAVERRSVNKEHNSNFKAGYIPIDEDRLHKTGLRGRKGNLAICVIILLFILAVINLIITLVWWAVIRIGPNGCDSMEFHESGLLRFKQVSDMGVIHPLYKSTVGGRRNENLVITGNNQPIVFQQGTTKLSVENNKTSITSDIGMQFFDPRTQNILFSTDYETHEFHLPSGVKSLNVQKASTERITSNATSDLNIKVDGRAIVRGNEGVFIMGKTIEFHMGGNMELKAENSIILNGSVMVSTTRLPSSSSGDQLGSGDWVRYKLCMCADGTLFKVQVTSQNMGCQISDNPCGNTH [I86W] the “SGCB cell-surface expression functional score (log10)” value was -2.19. With MAAAAAAAAEQQSSNGPVKKSMREKAVERRSVNKEHNSNFKAGYIPIDEDRLHKTGLRGRKGNLAICVIILLFILAVINLIITLVQWAVIRIGPNGCDSMEFHESGLLRFKQVSDMGVIHPLYKSTVGGRRNENLVITGNNQPIVFQQGTTKLSVENNKTSITSDIGMQFFDPRTQNILFSTDYETHEFHLPSGVKSLNVQKASTERITSNATSDLNIKVDGRAIVRGNEGVFIMGKTIEFHMGGNMELKAENSIILNGSVMVSTTRLPSSSSGDQLGSGDWVRYKLCMCADGTLFKVQVTSQNMGCQISDNPCGNTH [I86Q] the “SGCB cell-surface expression functional score (log10)” value was -0.24. In the case of MAAAAAAAAEQQSSNGPVKKSMREKAVERRSVNKEHNSNFKAGYIPIDEDRLHKTGLRGRKGNLAICVIILLFILAVINLIITLVVWAVIRIGPNGCDSMEFHESGLLRFKQVSDMGVIHPLYKSTVGGRRNENLVITGNNQPIVFQQGTTKLSVENNKTSITSDIGMQFFDPRTQNILFSTDYETHEFHLPSGVKSLNVQKASTERITSNATSDLNIKVDGRAIVRGNEGVFIMGKTIEFHMGGNMELKAENSIILNGSVMVSTTRLPSSSSGDQLGSGDWVRYKLCMCADGTLFKVQVTSQNMGCQISDNPCGNTH [I86V], the “SGCB cell-surface expression functional score (log10)” value is reported as 0.32. For MAAAAAAAAEQQSSNGPVKKSMREKAVERRSVNKEHNSNFKAGYIPIDEDRLHKTGLRGRKGNLAICVIILLFILAVINLIITLVRWAVIRIGPNGCDSMEFHESGLLRFKQVSDMGVIHPLYKSTVGGRRNENLVITGNNQPIVFQQGTTKLSVENNKTSITSDIGMQFFDPRTQNILFSTDYETHEFHLPSGVKSLNVQKASTERITSNATSDLNIKVDGRAIVRGNEGVFIMGKTIEFHMGGNMELKAENSIILNGSVMVSTTRLPSSSSGDQLGSGDWVRYKLCMCADGTLFKVQVTSQNMGCQISDNPCGNTH [I86R], the “SGCB cell-surface expression functional score (log10)” value was -0.77. For MAAAAAAAAEQQSSNGPVKKSMREKAVERRSVNKEHNSNFKAGYIPIDEDRLHKTGLRGRKGNLAICVIILLFILAVINLIITLVSWAVIRIGPNGCDSMEFHESGLLRFKQVSDMGVIHPLYKSTVGGRRNENLVITGNNQPIVFQQGTTKLSVENNKTSITSDIGMQFFDPRTQNILFSTDYETHEFHLPSGVKSLNVQKASTERITSNATSDLNIKVDGRAIVRGNEGVFIMGKTIEFHMGGNMELKAENSIILNGSVMVSTTRLPSSSSGDQLGSGDWVRYKLCMCADGTLFKVQVTSQNMGCQISDNPCGNTH [I86S], the “SGCB cell-surface expression functional score (log10)” value was -0.98. In the case of MAAAAAAAAEQQSSNGPVKKSMREKAVERRSVNKEHNSNFKAGYIPIDEDRLHKTGLRGRKGNLAICVIILLFILAVINLIITLVHWAVIRIGPNGCDSMEFHESGLLRFKQVSDMGVIHPLYKSTVGGRRNENLVITGNNQPIVFQQGTTKLSVENNKTSITSDIGMQFFDPRTQNILFSTDYETHEFHLPSGVKSLNVQKASTERITSNATSDLNIKVDGRAIVRGNEGVFIMGKTIEFHMGGNMELKAENSIILNGSVMVSTTRLPSSSSGDQLGSGDWVRYKLCMCADGTLFKVQVTSQNMGCQISDNPCGNTH [I86H], the “SGCB cell-surface expression functional score (log10)” value is reported as -1.91. For MAAAAAAAAEQQSSNGPVKKSMREKAVERRSVNKEHNSNFKAGYIPIDEDRLHKTGLRGRKGNLAICVIILLFILAVINLIITLVTWAVIRIGPNGCDSMEFHESGLLRFKQVSDMGVIHPLYKSTVGGRRNENLVITGNNQPIVFQQGTTKLSVENNKTSITSDIGMQFFDPRTQNILFSTDYETHEFHLPSGVKSLNVQKASTERITSNATSDLNIKVDGRAIVRGNEGVFIMGKTIEFHMGGNMELKAENSIILNGSVMVSTTRLPSSSSGDQLGSGDWVRYKLCMCADGTLFKVQVTSQNMGCQISDNPCGNTH [I86T], the “SGCB cell-surface expression functional score (log10)” value was -0.15. For MAAAAAAAAEQQSSNGPVKKSMREKAVERRSVNKEHNSNFKAGYIPIDEDRLHKTGLRGRKGNLAICVIILLFILAVINLIITLVKWAVIRIGPNGCDSMEFHESGLLRFKQVSDMGVIHPLYKSTVGGRRNENLVITGNNQPIVFQQGTTKLSVENNKTSITSDIGMQFFDPRTQNILFSTDYETHEFHLPSGVKSLNVQKASTERITSNATSDLNIKVDGRAIVRGNEGVFIMGKTIEFHMGGNMELKAENSIILNGSVMVSTTRLPSSSSGDQLGSGDWVRYKLCMCADGTLFKVQVTSQNMGCQISDNPCGNTH [I86K], the “SGCB cell-surface expression functional score (log10)” value was -0.65. For MAAAAAAAAEQQSSNGPVKKSMREKAVERRSVNKEHNSNFKAGYIPIDEDRLHKTGLRGRKGNLAICVIILLFILAVINLIITLVPWAVIRIGPNGCDSMEFHESGLLRFKQVSDMGVIHPLYKSTVGGRRNENLVITGNNQPIVFQQGTTKLSVENNKTSITSDIGMQFFDPRTQNILFSTDYETHEFHLPSGVKSLNVQKASTERITSNATSDLNIKVDGRAIVRGNEGVFIMGKTIEFHMGGNMELKAENSIILNGSVMVSTTRLPSSSSGDQLGSGDWVRYKLCMCADGTLFKVQVTSQNMGCQISDNPCGNTH [I86P], the “SGCB cell-surface expression functional score (log10)” value was -0.94.
